Publication doi:10.1101/2025.11.29.689641

Molecular target: SoP450 from Shimazuella soli (CPR-containing self-sufficient cytochrome P450, homologue of P450BM3) (Shimazuella soli)
Assay: SEC

stoichiometry N: 2
Substance: SoP450 from Shimazuella soli (CPR-containing self-sufficient cytochrome P450, homologue of P450BM3) (enzyme)
